Consider 26 molecules from patent US20190015483A1 (CSL BEHRING RECOMBINANT FACILITY, published 2019).

Positions count from the first letter of the chain named. Names and notes keep the numbering of the source.

Broadly, the Kd is the constant that tells how readily two partners part at equilibrium. One may read the koff as the rate constant with which the complex falls apart. The kon is a measure of how fast the partners come together.

Assay [1] concerns the target T1, recombinant Factor VIII (CSL627, rVIII-SingleChain) (Homo sapiens (Human), UniProt P00451 20-2351).
T1 construct: also called FVIII
T1 sequence: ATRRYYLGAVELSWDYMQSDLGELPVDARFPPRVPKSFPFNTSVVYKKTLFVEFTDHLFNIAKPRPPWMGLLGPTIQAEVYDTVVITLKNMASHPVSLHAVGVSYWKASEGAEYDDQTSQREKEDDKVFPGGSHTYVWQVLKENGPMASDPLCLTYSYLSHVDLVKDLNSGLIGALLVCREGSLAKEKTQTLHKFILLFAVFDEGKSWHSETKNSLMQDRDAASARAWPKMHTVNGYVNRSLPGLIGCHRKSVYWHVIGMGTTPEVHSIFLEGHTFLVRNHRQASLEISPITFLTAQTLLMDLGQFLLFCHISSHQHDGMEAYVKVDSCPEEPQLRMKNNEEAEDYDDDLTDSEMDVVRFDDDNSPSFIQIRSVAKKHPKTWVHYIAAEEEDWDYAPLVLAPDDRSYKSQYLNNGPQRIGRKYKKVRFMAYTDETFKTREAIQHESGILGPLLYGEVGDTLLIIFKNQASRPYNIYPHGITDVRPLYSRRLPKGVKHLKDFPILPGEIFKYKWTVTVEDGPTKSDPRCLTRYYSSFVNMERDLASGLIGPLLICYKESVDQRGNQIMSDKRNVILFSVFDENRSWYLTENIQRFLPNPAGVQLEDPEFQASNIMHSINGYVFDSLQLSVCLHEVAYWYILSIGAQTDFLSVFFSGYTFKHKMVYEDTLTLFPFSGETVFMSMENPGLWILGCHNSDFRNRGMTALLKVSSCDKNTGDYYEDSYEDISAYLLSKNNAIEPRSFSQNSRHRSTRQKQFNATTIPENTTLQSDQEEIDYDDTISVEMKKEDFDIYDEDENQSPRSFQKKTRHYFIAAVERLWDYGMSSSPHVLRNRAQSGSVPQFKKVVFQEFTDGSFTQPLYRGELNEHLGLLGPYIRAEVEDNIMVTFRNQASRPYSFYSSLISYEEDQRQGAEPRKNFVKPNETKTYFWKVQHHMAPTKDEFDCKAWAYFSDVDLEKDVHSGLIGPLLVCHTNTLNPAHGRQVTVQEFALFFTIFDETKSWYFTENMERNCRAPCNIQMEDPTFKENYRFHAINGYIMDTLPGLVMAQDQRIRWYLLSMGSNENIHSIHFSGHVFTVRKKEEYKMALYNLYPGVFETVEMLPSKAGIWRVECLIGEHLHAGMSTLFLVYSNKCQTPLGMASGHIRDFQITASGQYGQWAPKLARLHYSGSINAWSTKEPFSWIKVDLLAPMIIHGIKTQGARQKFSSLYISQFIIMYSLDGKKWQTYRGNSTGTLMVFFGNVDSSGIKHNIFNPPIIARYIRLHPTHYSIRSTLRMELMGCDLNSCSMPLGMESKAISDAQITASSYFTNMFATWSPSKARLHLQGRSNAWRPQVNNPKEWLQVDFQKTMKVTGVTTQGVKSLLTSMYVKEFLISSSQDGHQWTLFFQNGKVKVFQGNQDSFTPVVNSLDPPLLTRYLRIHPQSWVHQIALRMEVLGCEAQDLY
In words: SPR, anti-His capture. How it is done:
Binding kinetics were investigated by surface plasmon resonance using a Biacore 4000 biosensor at 37° C. Each mutant was captured from cell culture medium to a density of 40-150 RU on a CM-5 sensor chip pre-immobilised with anti-His antibody (14,000 RU). In an initial screening study, FVIII was injected over the captured mutants for 5 minutes at 1 nM and dissociation monitored for 5 minutes.
All sensorgrams were double referenced by subtraction of signals from a reference spot (containing only immobilised anti His antibody) and from a blank injection. Binding kinetics were determined by fitting the double referenced sensorgrams to a 1:1 kinetic model.
In general terms: In SPR one partner is held on a chip, and binding of the other changes the refractive index at the surface.

Assay [2] concerns the target T2, recombinant Factor VIII (CSL627, rVIII-SingleChain) (Homo sapiens (Human), UniProt P00451 20-2351).
T2 construct: also called FVIII
T2 sequence: T1 sequence
The assay can be described thus: SPR, anti-His capture, FVIII injected, 37 C. A digest of the protocol: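 First, mutants in culture medium are loaded to 40-150 RU on anti-His-coated chip; next, 1 nM FVIII is passed over for 5 min and washout followed for 5 min; finally, 1:1 fitting of double-referenced data gives rate constants.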

B1: Hu-vWF[764-1270]-8His S764P-K773A (other)
chain: PLSCRPPMVALVCPADNLRAEGLECTKTCQNYDLECMSMGCVSGCLCPPGMVRHENRCVALERCPCFHQGKEYAPGETVKIGCNTCVCRDRKWNCTDHVCDATCSTIGMAHYLTFDGLKYLFPGECQYVLVQDYCGSNPGTFRILVGNKGCSHPSVKCKKRVTILVEGGEIELFDGEVNVKRPMKDETHFEVVESGRYIILLLGKALSVVWDRHLSISVVLKQTYQEKVCGLCGNFDGIQNNDLTSSNLQVEEDPVDFGNSWKVSSQCADTRKVPLDSSPATCHNNIMKQTMVDSSCRILTSDVFQDCNKLVDPEPYLDVCIYDTCSCESIGDCACFCDTIAAYAHVCAQHGKVVTWRTATLCPQSCEERNLRENGYECEWRYNSCAPACQVTCQHPEPLACPVQCVEGCHAHCPPGKILDELLQTCVDPEDCPVCEVAGRRFASGKKVTLNPSDPEHCQICHCDVVNLTCEACQEPGGLVVPPTDAPVSPTTLYVEDISEPPLHDFHHHHHHHH
B1: in assay [1], the Kd was determined as 0.0297 nM, the koff came to 0.000189 s⁻¹ and the kon turned out to be 6.37e+06 M⁻¹ s⁻¹.

B2: Hu-vWF[764-1270]-8His S766Y-R768E (other)
chain: B1 chain with P1S, S3Y, R5E, A10K
On to B2, for which, in assay [2], the Kd stood at 0.569 nM, the koff is 0.00322 s⁻¹ and the kon stood at 5.65e+06 M⁻¹ s⁻¹.

B3: Hu-vWF[764-1270]-8His S766Y-R768Y (other)
chain: B1 chain with P1S, S3Y, R5Y, A10K
On to B3, for which, in assay [2], the Kd was 0.277 nM, the koff was determined as 0.00187 s⁻¹ and the kon was found to be 6.74e+06 M⁻¹ s⁻¹.

B4: Hu-vWF[764-1270]-8His S766Y-R768K (other)
chain: B1 chain with P1S, S3Y, R5K, A10K
As for B4, in assay [2], the Kd amounted to 0.109 nM, the koff was determined as 0.000417 s⁻¹ and the kon worked out at 3.83e+06 M⁻¹ s⁻¹.

B5: Hu-vWF[764-1270]-8His S766Y-R768M (other)
chain: B1 chain with P1S, S3Y, R5M, A10K
As to B5, in assay [2], the Kd amounted to 0.196 nM, the koff is 0.000801 s⁻¹ and the kon stood at 4.08e+06 M⁻¹ s⁻¹.

B6: Hu-vWF[764-1270]-8His S766Y-R768G (other)
chain: B1 chain with P1S, S3Y, R5G, A10K
Regarding B6, in assay [2], the Kd worked out at 0.32 nM, the koff came out at 0.00102 s⁻¹ and the kon is 3.2e+06 M⁻¹ s⁻¹.

B7: Hu-vWF[764-1270]-8His S766Y-R768F (other)
chain: B1 chain with P1S, S3Y, R5F, A10K
On to B7, for which, in assay [2], the Kd was found to be 0.279 nM, the koff came to 0.00182 s⁻¹ and the kon stood at 6.51e+06 M⁻¹ s⁻¹.

B8: Hu-vWF[764-1270]-8His S766Y-R768I (other)
chain: B1 chain with P1S, S3Y, R5I, A10K
Regarding B8, in assay [2], the Kd was 0.179 nM, the off-rate constant (koff) came to 0.000899 s⁻¹ and the kon was determined as 5.03e+06 M⁻¹ s⁻¹.

B9: Hu-vWF[764-1270]-8His S766Y-P769W (other)
chain: B1 chain with P1S, S3Y, P6W, A10K
Consider B9, for which, in assay [2], the Kd stood at 0.0882 nM, the koff came out at 0.000421 s⁻¹ and the kon came out at 4.77e+06 M⁻¹ s⁻¹.

B10: Hu-vWF[764-1270]-8His S766Y-P769Y (other)
chain: B1 chain with P1S, S3Y, P6Y, A10K
For the molecule B10, in assay [2], the Kd came out at 0.0847 nM, the koff turned out to be 0.000396 s⁻¹ and the kon came to 4.68e+06 M⁻¹ s⁻¹.

B11: Hu-vWF[764-1270]-8His S764P-K773G (other)
chain: B1 chain with A10G
For the molecule B11, in assay [1], the Kd was determined as 0.0436 nM, the koff came out at 0.000762 s⁻¹ and the kon amounted to 1.75e+07 M⁻¹ s⁻¹.

B12: Hu-vWF[764-1270]-8His S766Y-R768D (other)
chain: B1 chain with P1S, S3Y, R5D, A10K
Regarding B12, in assay [2], the Kd stood at 0.908 nM, the koff was determined as 0.00448 s⁻¹ and the kon came out at 4.94e+06 M⁻¹ s⁻¹.

B13: Hu-vWF[764-1270]-8His S766Y-R768S (other)
chain: B1 chain with P1S, S3Y, R5S, A10K
With B13, in assay [2], the Kd came to 0.243 nM, the koff turned out to be 0.00129 s⁻¹ and the kon was found to be 5.33e+06 M⁻¹ s⁻¹.

B14: Hu-vWF[764-1270]-8His S766Y-R768P (other)
chain: B1 chain with P1S, S3Y, R5P, A10K
Regarding B14, in assay [2], the equilibrium dissociation constant (Kd) stood at 0.213 nM, the koff was found to be 0.00143 s⁻¹ and the kon worked out at 6.71e+06 M⁻¹ s⁻¹.

B15: Hu-vWF[764-1270]-8His S766Y-R768Q (other)
chain: B1 chain with P1S, S3Y, R5Q, A10K
On to B15, for which, in assay [2], the dissociation constant Kd amounted to 0.174 nM, the koff amounted to 0.000606 s⁻¹ and the kon was 3.48e+06 M⁻¹ s⁻¹.

B16: Hu-vWF[764-1270]-8His S764P-K773H (other)
chain: B1 chain with A10H
In the case of B16, in assay [1], the Kd was found to be 0.0386 nM, the koff came out at 0.000636 s⁻¹ and the kon amounted to 1.65e+07 M⁻¹ s⁻¹.

B17: Hu-vWF[764-1270]-8His S766Y-R768V (other)
chain: B1 chain with P1S, S3Y, R5V, A10K
B17: in assay [2], the Kd was found to be 0.203 nM, the koff worked out at 0.000918 s⁻¹ and the kon was found to be 4.51e+06 M⁻¹ s⁻¹.

B18: Hu-vWF[764-1270]-8His S766Y-R768T (other)
chain: B1 chain with P1S, S3Y, R5T, A10K
Consider B18, for which, in assay [2], the Kd stood at 0.256 nM, the koff was 0.00143 s⁻¹ and the kon was 5.59e+06 M⁻¹ s⁻¹.

B19: Hu-vWF[764-1270]-8His S766Y-R768A (other)
chain: B1 chain with P1S, S3Y, R5A, A10K
On to B19, for which, in assay [2], the Kd came to 0.212 nM, the koff was found to be 0.00148 s⁻¹ and the kon worked out at 6.99e+06 M⁻¹ s⁻¹.

B20: Hu-vWF[764-1270]-8His S764P-K773D (other)
chain: B1 chain with A10D
Take B20: in assay [1], the Kd was determined as 0.136 nM, the koff is 0.0024 s⁻¹ and the kon worked out at 1.77e+07 M⁻¹ s⁻¹.

B21: Hu-vWF[764-1270]-8His S764P-K773F (other)
chain: B1 chain with A10F
On to B21, for which, in assay [1], the Kd came out at 0.121 nM, the koff amounted to 0.00123 s⁻¹ and the kon amounted to 1.02e+07 M⁻¹ s⁻¹.

B22: Hu-vWF[764-1270]-8His S766Y-R768H (other)
chain: B1 chain with P1S, S3Y, R5H, A10K
Take B22: in assay [2], the Kd came out at 0.172 nM, the koff is 0.00069 s⁻¹ and the kon amounted to 4.02e+06 M⁻¹ s⁻¹.

B23: Hu-vWF[764-1270]-8His S766Y-R768N (other)
chain: B1 chain with P1S, S3Y, R5N, A10K
B23: in assay [2], the Kd stood at 0.191 nM, the koff is 0.000798 s⁻¹ and the kon was 4.18e+06 M⁻¹ s⁻¹.

B24: Hu-vWF[764-1270]-8His S766Y-R768L (other)
chain: B1 chain with P1S, S3Y, R5L, A10K
On to B24, for which, in assay [2], the Kd stood at 0.129 nM, the koff stood at 0.000548 s⁻¹ and the kon was determined as 4.24e+06 M⁻¹ s⁻¹.

B25: Hu-vWF[764-1270]-8His S766Y-R768W (other)
chain: B1 chain with P1S, S3Y, R5W, A10K
As for B25, in assay [2], the Kd turned out to be 0.213 nM, the koff came to 0.00094 s⁻¹ and the kon amounted to 4.42e+06 M⁻¹ s⁻¹.

B26: Hu-vWF[764-1270]-8His S764P-K773E (other)
chain: B1 chain with A10E
B26: in assay [1], the Kd amounted to 0.0765 nM, the koff stood at 0.00515 s⁻¹ and the kon was found to be 6.73e+07 M⁻¹ s⁻¹.
